Changes are numbered by the printed parent chain. Names and notes keep the numbering of the source. Where two headings read alike, the source gives them in different places. Blank lines part the entries; values can stand above or below the molecule they belong to.
Key:
[1] = target: T1, recombinant human IL-13 (human, UniProt P35225 35-146, limits assumed); test: cell-based or functional assay
[2] = target: T1, recombinant human IL-13; test: SPR Biacore 3000, antibody captured, cytokine in solution
Description: (§1) Surface plasmon resonance technology on a Biacore 3000 (GE Healthcare) was used for detailed kinetic characterisation of purified anibodics. A capture assay using a species specific antibody (e.g. human-Fc specific MAB 1302, Chemicon) for capture and orientation of the investigated antibodies was used. The capture antibody was immobilized via primary amine groups (10000 RU) on a research grade CM5 chip (GE Life Sciences) using standard procedures. The analysed antibody was captured with an adjusted RU value that would result in maximal analyte binding of 30 RU at a flow rate of 10 μl/min. Binding kinetics were measured against recombinant human IL-4 and IL-13 over a concentration range between 0 to 50 nM in HBS EP (10 mM HEPES pH 7.4, 150 mM NaCl, 3 mM EDTA, 0.005% Surfactant P20) at a flow rate of 30 μl/min. Chip surfaces were regenerated with 10 mM glycine pH2.5. Kinetic parameters were analysed and calculated in the BIAevaluation program package using a flow cell without captured antibody as reference. To investigate additive binding of both antigens, a wizard-driven co-inject method has been applied in which one antigen was injected immediately followed by the antigen mix of IL-13/IL-4.

[3] = target: T1, recombinant human IL-13; test: SPR Biacore 3000, ratio of KD
Description: as §1

[4] = target: T2, recombinant human IL-4 (human, UniProt P05112 25-153); test: cell-based or functional assay
T2 sequence (looked up): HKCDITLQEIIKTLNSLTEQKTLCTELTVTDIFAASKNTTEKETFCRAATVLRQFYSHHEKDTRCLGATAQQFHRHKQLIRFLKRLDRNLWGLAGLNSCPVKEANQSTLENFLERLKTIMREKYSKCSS

[5] = target: T2, recombinant human IL-4; test: SPR Biacore 3000, antibody captured, cytokine in solution
Description: as §1

[6] = target: T2, recombinant human IL-4; test: SPR Biacore 3000, ratio of KD
Description: as §1

[7] = target: human IL-13 R112Q variant (human) (UniProt P35225); test: SPR Biacore 3000, antibody captured, cytokine in solution
[8] = target: T2, recombinant human IL-4; test: cell-based or functional assay; remark: listed apart in the source
[9] = target: T2, recombinant human IL-4; test: SPR Biacore 3000, antibody captured, cytokine in solution; remark: listed apart in the source
Description: as §1
Binding and neutralization activity assays were performed as described in the previous Examples.

Chain of human IL-13 R112Q variant (human) (P35225 33-146, stated change not applied): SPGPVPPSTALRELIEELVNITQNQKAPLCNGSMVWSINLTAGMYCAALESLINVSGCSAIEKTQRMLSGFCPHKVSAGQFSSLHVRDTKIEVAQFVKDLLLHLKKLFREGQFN
T1 sequence (P35225 35-146 limits assumed): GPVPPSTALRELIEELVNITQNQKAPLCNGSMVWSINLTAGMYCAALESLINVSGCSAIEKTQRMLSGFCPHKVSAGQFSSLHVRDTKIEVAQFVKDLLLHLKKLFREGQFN

Molecule: chimeric anti-IL-13 clone B-B13 monoclonal antibody
IC50, inhibition of IL-13 induced TF-1 cell proliferation [1]: 7.4 nM
Kd [2]: 0.261 nM
koff [2]: 0.000461 s⁻¹
kon [2]: 1.76e+06 M⁻¹ s⁻¹

B1: huB-B13 VL2 × VH2 (antibody, V domains shown)
VH: EVQLKESGPGLVAPGGSLSITCTVSGFSLTDSSINWVRQPPGKGLEWLGMIWGDGRIDYADALKSRLSISKDSSKSQVFLEMTSLRTDDTATYYCARDGYFPYAMDFWGQGTSVTVSS
VL: DIVLTQSPASLAVSLGQRATISCRASESVDSYGNSYMHWYQQKAGQPPKLLIYLASNLESGVPARFSGSGSRTDFTLTIDPVQAEDAATYYCQQNNEDSRTFGGGTKLEIK
notes: Expressed as a whole antibody, purified on Protein A; also called humanized B-B13 VL2xVH2
Kd [2]: 0.157 nM
koff [2]: 0.000177 s⁻¹
kon [2]: 1.13e+06 M⁻¹ s⁻¹

B4: huB-B13 VL1 × VH3 (antibody, V domains shown)
VH: B1 VH with Y100R, D106K
VL: B1 VL with S99P
notes: Expressed as a whole antibody, purified on Protein A; also called humanized B-B13 VL1xVH3
Kd [2]: 0.205 nM
koff [2]: 0.000395 s⁻¹
kon [2]: 1.93e+06 M⁻¹ s⁻¹

B5: huB-B13 VL3 × VH1 (antibody, V domains shown)
VH: B1 VH with A60N, S73N, T83N
VL: B1 VL with N34Q, N96A
notes: Expressed as a whole antibody, purified on Protein A; also called humanized B-B13 VL3xVH1
IC50, inhibition of IL-13 induced TF-1 cell proliferation [1]: 5.2 nM
Kd [2]: 0.172 nM
koff [2]: 0.000333 s⁻¹
kon [2]: 1.93e+06 M⁻¹ s⁻¹

B6: huB-B13 VL1 × VH1 (antibody, V domains shown)
VH: B1 VH with A60N, S73N, T83N
VL: B1 VL with S99P
notes: Expressed as a whole antibody, purified on Protein A; also called humanized B-B13 VL1xVH1
IC50, inhibition of IL-13 induced TF-1 cell proliferation [1]: 15.7 nM
Kd [2]: 0.396 nM
koff [2]: 0.000691 s⁻¹
kon [2]: 1.74e+06 M⁻¹ s⁻¹

B7: Hu8D4-8 VL1 × VH1 (antibody, V domains shown)
VH: QVQLQQSGPELVKPGASVKISCKASGYSFTSYWIHWIKQRPGQGLEWIGMIDPSDGETRLNQRFQGRATLTVDESTSTAYMQLRSPTSEDSAVYYCTRLKEYGNYDSFYFDVWGAGTLVTVSS
VL: DIQMTQSPASLSVSVGDTITLTCHASQNIDVWLSWFQQKPGNIPKLLIYKASNLHTGVPSRFSGSGSGTGFTLTISSLQPEDIATYYCQQAHSYPFTFGGGTKLEIKR
notes: Expressed as a whole antibody, purified on Protein A; also called hu8D4-8 VL1xVH1; humanized 8D4-8 VL1xVH1
IC50, inhibition of IL-4 induced TF-1 cell proliferation [4]: 41 pM
Kd [5]: 0.00329 nM
koff [5]: 0.000155 s⁻¹
kon [5]: 4.72e+07 M⁻¹ s⁻¹
fold higher affinity than chimeric 8D4-8 [6]: 2 fold
fold higher affinity than the original murine 8D4-8 [6]: 11 fold

B8: chimeric anti-IL-4 clone 8D4-8 monoclonal antibody (antibody, V domains shown)
VH: B7 VH with E10Q, K13R, A16T, Q65K, G66D, E74R, T76S, V93L, L118T
VL: DIQMNQSPASLSVSLGDTITLTCHASQNIDVWLSWFQQSPGNIPKLLIYKASNLHTGVPSRFSGSGSGTGFTLTISSLQPEDIATYYCQQAHSYPFTFGGGTKLEIK
notes: Murine variable domains fused to IGHG1 and IGKC; also called ch8D4-8 WT; chimeric 8D4-8
IC50, inhibition of IL-4 induced TF-1 cell proliferation [4]: 84 pM
Kd [5]: 0.00783 nM
koff [5]: 0.000195 s⁻¹
kon [5]: 2.49e+07 M⁻¹ s⁻¹

B10: Hu8D4-8 VL1 × VH2 (antibody, V domains shown)
VH: B7 VH with P53A
VL: B7 VL
notes: Expressed as a whole antibody, purified on Protein A; also called humanized 8D4-8 VL1xVH2
IC50, inhibition of IL-4 induced TF-1 cell proliferation [4]: 135 pM
Kd [5]: 0.0139 nM
koff [5]: 0.000348 s⁻¹
kon [5]: 2.57e+07 M⁻¹ s⁻¹

B11: huTBTI3_1_1 (bispecific antibody, IgG4)
VH: EVQLKESGPGLVAPGGSLSITCTVSGFSLTDSSINWVRQPPGKGLEWLGMIWGDGRIDYADALKSRLSISKDSSKSQVFLEMTSLRTDDTATYYCARDGYFPYAMDFWGQGTSVTVSSGGGGSGGGGSQVQLQQSGPELVKPGASVKISCKASGYSFTSYWIHWIKQRPGQGLEWIGMIDASDGETRLNQRFQGRATLTVDESTSTAYMQLRSPTSEDSAVYYCTRLKEYGNYDSFYFDVWGAGTLVTVSS
VL: DIVLTQSPASLAVSLGQRATISCRASESVDSYGQSYMHWYQQKAGQPPKLLIYLASNLESGVPARFSGSGSRTDFTLTIDPVQAEDAATYYCQQNAEDSRTFGGGTKLEIKGGGGSGGGGSDIQMTQSPASLSVSVGDTITLTCHASQNIDVWLSWFQQKPGNIPKLLIYKASNLHTGVPSRFSGSGSGTGFTLTISSLQPEDIATYYCQQAHSYPFTFGGGTKLEIK
notes: Dual variable domain IgG4: B-B13 VL3 × VH2 outer, 8D4-8 VL1 × VH2 inner, (G4S)2 linkers; heterotetramer of two heavy and two light chains; copies: 2 + 2
Kd [7]: 0.121 nM
koff [7]: 0.000118 s⁻¹
kon [7]: 974000 M⁻¹ s⁻¹
IC50 (nM) in IL-4 assay (TF-1 cell proliferation) [8]: 1.7 nM
Kd [9]: 0.148 nM
koff [9]: 0.000378 s⁻¹
kon [9]: 2.55e+06 M⁻¹ s⁻¹

Second part, the molecule after the results:

Kd [2]: 0.563 nM
koff [2]: 0.000373 s⁻¹
kon [2]: 864000 M⁻¹ s⁻¹
Molecule: mouse anti-IL-13 monoclonal antibody clone B-B13

Kd [2]: 0.189 nM
koff [2]: 0.000405 s⁻¹
kon [2]: 2.14e+06 M⁻¹ s⁻¹
B2: huB-B13 VL3 × VH3 (antibody, V domains shown)
VH: B1 VH with Y100R, D106K
VL: B1 VL with N34Q, N96A
notes: Expressed as a whole antibody, purified on Protein A; also called humanized B-B13 VL3xVH3

IC50, inhibition of IL-13 induced TF-1 cell proliferation [1]: 3.2 nM
Kd [2]: 0.0439 nM
koff [2]: 0.000112 s⁻¹
kon [2]: 2.55e+06 M⁻¹ s⁻¹
fold higher affinity than chimeric B-B13 [3]: 6 fold
fold higher affinity than the original murine B-B13 [3]: 13 fold
B3: huB-B13 VL3 × VH2 (antibody, V domains shown)
VH: B1 VH
VL: B1 VL with N34Q, N96A
notes: Expressed as a whole antibody, purified on Protein A; also called huB-B13 VL3xVH2; humanized B-B13 VL3xVH2

IC50, inhibition of IL-4 induced TF-1 cell proliferation [4]: 97 pM
Kd [5]: 0.0377 nM
koff [5]: 0.000217 s⁻¹
kon [5]: 5.57e+06 M⁻¹ s⁻¹
B9: mouse anti-IL-4 monoclonal antibody clone 8D4-8 (antibody, V domains shown)
VH: B7 VH with E10Q, K13R, A16T, Q65K, G66D, E74R, T76S, V93L, L118T
VL: B7 VL with T5N, V15L, K39S
notes: Bought mouse monoclonal antibody (Biozol / BioLegend); also called murine 8D4-8

Kd [9]: 0.138 nM
koff [9]: 0.000308 s⁻¹
kon [9]: 2.23e+06 M⁻¹ s⁻¹
B12: huTBTI3_1_2 (bispecific antibody, IgG4)
VH: B11 VH
VL: B11 VL with Q34N, A96N
notes: Dual variable domain IgG4: B-B13 VL2 × VH2 outer, 8D4-8 VL1 × VH2 inner, (G4S)2 linkers; heterotetramer of two heavy and two light chains; copies: 2 + 2

Kd [9]: 0.0332 nM
koff [9]: 0.000132 s⁻¹
kon [9]: 3.96e+06 M⁻¹ s⁻¹
B13: huTBTI3_2_2 (bispecific antibody, IgG4)
VH: B11 VH with A181P
VL: B11 VL with Q34N, A96N
notes: Dual variable domain IgG4: B-B13 VL2 × VH2 outer, 8D4-8 VL1 × VH1 inner, (G4S)2 linkers; heterotetramer of two heavy and two light chains; copies: 2 + 2

Kd [7]: 0.211 nM
koff [7]: 0.0002 s⁻¹
kon [7]: 948000 M⁻¹ s⁻¹
IC50 (nM) in IL-4 assay (TF-1 cell proliferation) [8]: 0.32 nM
Kd [9]: 0.0347 nM
koff [9]: 0.000139 s⁻¹
kon [9]: 4e+06 M⁻¹ s⁻¹
B14: huTBTI3_2_1 (bispecific antibody, IgG4)
VH: B11 VH with A181P
VL: B11 VL
notes: Dual variable domain IgG4: B-B13 VL3 × VH2 outer, 8D4-8 VL1 × VH1 inner, (G4S)2 linkers; heterotetramer of two heavy and two light chains; copies: 2 + 2

Source: patent publication US20130236462A1 (Sanofi, published 2013)
